In patent US20220133761A1, “NEUTROPHIL APOPTOSIS INDUCED BY NANOPARTICLES FOR TREATING INFLAMMATORY DISEASES” (WASHINGTON STATE UNIVERSITY, priority 2020, published 2022):

Experiments:
activated neutrophils = assay: Nanoparticle uptake by blood leukocytes in LPS-induced inflammation mouse model (CLSM, flow cytometry); assay type: in vivo
Protocol: To investigate cell uptake specificity of BSA NPs in circulation, blood cells were isolated and studied using confocal laser scanning microscopy (CLSM) and flow cytometry. Briefly, 4 h after LPS challenge (i.p., 20 mg kg^−1), DOX-hyd-BSA NPs were intravenously injected into mice. Healthy mice were used as control. 3 h later, the whole blood was harvested in a heparinized tube from the heart. Neutrophils in blood were isolated by Pluriselect anti-mouse LY-6G S-pluribeads according to the manufacturer's protocol (Pluriselect, Spring Valley, Calif.). The cells were fixed with 2 mL of 4% paraformaldehyde for 30 min and were stained with Alexa Fluor 488-labeled anti-mouse LY-6G antibody. A slide smear of cell solution was prepared by 7620 Cytopro Cytocentrifuge (ELITech, Princeton, N.J.). A drop of Prolong Gold Antifade reagent with DAPI (Invitrogen, Eugene, Oreg.) was added on the cells, and a coverslip was applied on the slide. 4 h later, the cells were observed using a Nikon A1R^+ confocal laser scanning microscope.
Flow cytometry to quantify neutrophil uptake of nanoparticles was also utilized. Blood leukocytes were isolated to determine the specificity of uptake of NPs in blood. In brief, 3 mL Histopaque 10771 was carefully layered on top of 3 mL Histopaque 11191 in a 15 mL centrifuge tube. […]

[1] = tested on: differentiated HL-60 cells (neutrophil-like cells); assay: In vitro cytotoxicity, CCK-8 assay; assay type: cell-based, human; conditions: 24 h, different concentrations of DOX
Protocol: Cytotoxic effects of BSA NPs on HL-60 cells were measured by CCK-8 assay. HL-60 cells were plated in 96-well plates (Costar, Corning, N.Y.) at 5,000-10,000 cells/well. After incubation for 24 h, the culture medium was removed and a complete medium with various concentrations of free DOX, BSA and DOX-conjugated BSA NPs was used to incubate cells for 24 h, respectively. 10 μL of the solution cell proliferation reagent (Promega, Madison, Wis.) per well was added. Then, the cell viability was measured by a Synergy Neo fluorescence plate reader (BioTek, Winooski, Vt.) at 490 nm.

LPS-challenged mice [2] = assay: Survival study in sepsis mouse model (i.p. LPS 50 mg/kg); assay type: in vivo; conditions: 72 h, 0.2 mg/kg DOX i.v. 4 h after i.p. LPS 50 mg/kg
Protocol: Adult CD-1 mice were i.p. injected with LPS (50 mg/kg) in the mouse sepsis model. 4 hours later, the LPS-challenged mice were grouped randomly (10 mice per group) and treated (i.v.) with PBS, free DOX (0.2 mg/kg), and prodrug DOX-hyd-BSA NPs (equal to 0.2 mg/kg of free DOX). The animals were monitored every 6 h in the first 12 h followed by monitoring mice every 12 h in 72 h.

[3] = In vitro drug release profile (dialysis, 37 C); assay type: physicochemical
Protocol: Release profiles of DOX from NPs were studied using dialysis method at 37° C.(33) Briefly, 3 mg of NPs was dispersed in 3 mL (Ve) PBS at different pH, and then was placed in a dialysis bag (MWCO 3500 Da). The dialysis bag was immersed in 47 mL PBS (pH 7.4, 6.5 or 5.0) in a beaker. The beaker was then placed in a 37° C. water bath and stirred at 110 rpm. The samples were drawn at desired time intervals and the drug concentration was measured using UV-Vis absorption. The experiments were carried out in triplicate at each pH value. The accumulative drug release percent (Er) was calculated based on equation (1).
where, mdrug represents the amount of DOX in NPs, V0 was the whole volume of release media (V0=50 mL), Ci represents the concentration of DOX in the ith sample.

[4] = tested on: differentiated HL60 cells; assay: Uptake of DOX-hyd-BSA NPs by differentiated HL60 cells; assay type: cell-based, human; conditions: 10^6 cells/mL, 2 h at different DOX concentrations; time course at 30 μg/mL DOX
Protocol: FIG. 5C and FIG. 5D show resultant uptake data of the present application, wherein DOX-hyd-BSA NPs by differentiated HL60 cells were evaluated in vitro.

LPS-challenged mice [5] = assay: Second LPS hit (i.t.) in mice that survived sepsis after NP treatment
Protocol: The mice were challenged with LPS (i.p., 50 mg/kg) or PBS (control). 4 h later, the LPS-challenged mice were i.v. treated with DOX-hyd-BSA NPs at 0.2 mg/kg of DOX. The control mice were not treated with LPS and NPs. 72 h later, all survival and control (healthy) mice were challenged with LPS (i.t., 10 mg/kg).
The combinatory experiments were designed in which a mouse was i.p. challenged with LPS to cause sepsis, and then a mouse was treated with DOX-loaded NPs 4 h after the LPS challenge. At 72 h after the LPS challenge, the survival mouse was i.t. administered to examine whether neutrophils can transmigrate and respond to the second hit of LPS (see FIG. 10M of experimental protocol diagram).

human neutrophils = assay: Uptake of nanoparticles by human neutrophils in vitro (flow cytometry); assay type: cell-based; conditions: 30 ug/ml, 2 h
Protocol: FIG. 15 show novel data of uptake of DOX-hdy-BSA NPs by human neutrophils. Human neutrophils were incubated with DOX-hyd-BSA NPs (the concentration at 30 ug/ml) for 2 h, and then the cells were washed, and they were analyzed by flowcytometry.
It is also to be noted that the methods herein also pertain to making human albumin nanoparticles similar to BSA NPs. […] Human neutrophils were incubated with DOX-hyd-BSA NPs (the concentration at 30 ug/ml) for 2 h, and then the cells were washed and analyzed by flowcytometry.

[6] = pH-triggered DOX release, UV-Vis of supernatants after 2 h incubation; assay type: physicochemical
Protocol: To confirm the pH-triggered drug release property, BSA NPs, DOX-ab-BSA NPs and DOX-hyd-BSA NPs were incubated in PBS at pH 7.4, 6.5 and 5.0 for 2 h, respectively. After centrifugation, the supernatants were collected to determine DOX concentrations using a UV-Vis spectrometer.

Substance: DOX-hyd-BSA NPs
- neutrophil uptake of NPs (activated neutrophils; 4 h after i.p. LPS 20 mg/kg, blood 3 h after i.v. NPs): neutrophil uptake was observed
- uptake by T cells, monocytes and natural killer (NK) cells in blood (activated neutrophils; LPS-challenged mice, flow cytometry): did not take up BSA NPs
- cytotoxicity (cell viability) [1]: cytotoxicity was similar for both free DOX and DOX-hyd-BSA NPs
- mouse survival (LPS-challenged mice [2]): 70%
- cumulative DOX release ([3]; pH 5.0, first 10 h): 80%
- cumulative DOX release ([3]; pH 5, in 30 h): completely released DOX
- cumulative DOX release ([3]; pH 6.5, first 10 h): 60%
- DOX uptake by cells [4]: taken up efficiently
- body weight of mice that survived sepsis (LPS-challenged mice [5]; 0.2 mg (DOX)/kg dose): returned to their initial weight
- response of neutrophils to second LPS challenge (BALF neutrophils, cytokines) (LPS-challenged mice [5]; i.t. LPS 10 mg/kg at 72 h, BALF at 84 h, vs healthy mice): can immediately respond to the challenge of LPS like what the healthy mice did
- uptake by human neutrophils (human neutrophils): can be efficiently taken up
- DOX absorption at 480 nm in supernatant ([6]; pH 5.0 and 6.5, 2 h incubation in PBS): Absorption of DOX molecules at 480 nm was observed
- DOX in supernatant ([6]; pH 7.4, 2 h incubation in PBS): did not observe DOX in the supernatant
